T1: EsCas13d, nuclease-dead (Eubacterium siraeum, UniProt B0MS50, R295A;H300A;R849A;H854A)
T1 sequence: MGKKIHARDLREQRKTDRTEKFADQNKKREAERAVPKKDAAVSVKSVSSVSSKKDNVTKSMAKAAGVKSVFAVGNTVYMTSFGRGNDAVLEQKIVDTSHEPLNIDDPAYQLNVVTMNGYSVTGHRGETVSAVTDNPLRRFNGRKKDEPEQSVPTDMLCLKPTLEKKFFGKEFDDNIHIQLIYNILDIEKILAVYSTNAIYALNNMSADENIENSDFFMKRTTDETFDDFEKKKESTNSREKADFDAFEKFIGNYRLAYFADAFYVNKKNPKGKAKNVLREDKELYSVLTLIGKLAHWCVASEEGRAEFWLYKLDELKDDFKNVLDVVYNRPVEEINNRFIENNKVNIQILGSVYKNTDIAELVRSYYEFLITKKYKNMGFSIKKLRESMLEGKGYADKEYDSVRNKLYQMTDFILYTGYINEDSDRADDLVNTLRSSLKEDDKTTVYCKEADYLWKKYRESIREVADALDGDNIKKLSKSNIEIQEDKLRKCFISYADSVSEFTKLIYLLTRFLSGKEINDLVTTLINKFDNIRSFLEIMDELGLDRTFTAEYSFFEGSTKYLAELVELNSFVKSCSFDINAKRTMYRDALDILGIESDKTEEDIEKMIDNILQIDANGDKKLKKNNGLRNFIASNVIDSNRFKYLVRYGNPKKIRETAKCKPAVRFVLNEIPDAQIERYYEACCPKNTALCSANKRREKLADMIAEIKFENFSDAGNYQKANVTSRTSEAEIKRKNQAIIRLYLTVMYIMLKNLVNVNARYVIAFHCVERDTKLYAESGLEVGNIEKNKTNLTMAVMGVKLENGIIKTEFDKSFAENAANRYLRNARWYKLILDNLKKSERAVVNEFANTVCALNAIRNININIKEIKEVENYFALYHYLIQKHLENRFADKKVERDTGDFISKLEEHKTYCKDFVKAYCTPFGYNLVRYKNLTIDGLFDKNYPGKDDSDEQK

B1: target 1 C2A,U8A (mixed)
RNA 1: CACCCGUGCAAAAAUGCAGGGGUCUAAAACUGAGCGGAUAACCUCUCUAUGG
RNA 2: GGGAAUGGAUCCACAUCUACGAAUUCGUACCAUAGAGAGGUUAACCGCUAACCGAGAUCGGAAGAGCACACGU
B2: target 1 C2G,A9C (mixed)
RNA 1: B1 RNA 1
RNA 2: B1 RNA 2 with A43C, A44U, A50G
B3: target 1 insG 3' of 4,insA 3' of 3 (mixed)
RNA 1: B1 RNA 1
RNA 2: GGGAAUGGAUCCACAUCUACGAAUUCGUACCAUAGAGAGGUUAUCCGCGUACACCGAGAUCGGAAGAGCACACGU
B4: target 2 MT 5'PFS UAA 3'PFS CAC (mixed)
RNA 1: CACCCGUGCAAAAUUGCAGGGGUCUAAAACCUUCUCCAAAUUGUUUCAUCCU
RNA 2: GGGAAUGGAUCCACAUCUACGAAUUCUAAAGGAUGAAACAAUUUGGAGAAGCACAGAUCGGAAGAGCACACGU
B5: target 2 MT 5'PFS GCG 3'PFS UCG (mixed)
RNA 1: B4 RNA 1
RNA 2: B4 RNA 2 with U27G, A28C, A29G, C52U, A53C, C54G
B6: target 2 MT 5'PFS UCG 3'PFS AAA (mixed)
RNA 1: B4 RNA 1
RNA 2: B4 RNA 2 with A28C, A29G, C52A, C54A
B7: target 2 MT 5'PFS UAA 3'PFS CAA (mixed)
RNA 1: B4 RNA 1
RNA 2: B4 RNA 2 with C54A
B8: target 2 MT 5'PFS UCG 3'PFS AAU (mixed)
RNA 1: B4 RNA 1
RNA 2: B4 RNA 2 with A28C, A29G, C52A, C54U
B9: target 2 MT 5'PFS CAG 3'PFS AUA (mixed)
RNA 1: B4 RNA 1
RNA 2: B4 RNA 2 with U27C, A29G, C52A, A53U, C54A
B10: target 2 MT 5'PFS UUU 3'PFS AUG (mixed)
RNA 1: B4 RNA 1
RNA 2: B4 RNA 2 with A28U, A29U, C52A, A53U, C54G
B11: target 2 MT 5'PFS GAG 3'PFS UCG (mixed)
RNA 1: B4 RNA 1
RNA 2: B4 RNA 2 with U27G, A29G, C52U, A53C, C54G
B12: target 2 MT 5'PFS UGC 3'PFS GGC (mixed)
RNA 1: B4 RNA 1
RNA 2: B4 RNA 2 with A28G, A29C, C52G, A53G
B13: target 2 MT 5'PFS GCG 3'PFS AAG (mixed)
RNA 1: B4 RNA 1
RNA 2: B4 RNA 2 with U27G, A28C, A29G, C52A, C54G
B14: target 2 MT 5'PFS GAG 3'PFS UCA (mixed)
RNA 1: B4 RNA 1
RNA 2: B4 RNA 2 with U27G, A29G, C52U, A53C, C54A
B15: target 2 MT 5'PFS CUG 3'PFS UGU (mixed)
RNA 1: B4 RNA 1
RNA 2: B4 RNA 2 with U27C, A28U, A29G, C52U, A53G, C54U
B16: target 2 MT 5'PFS UUU 3'PFS AUU (mixed)
RNA 1: B4 RNA 1
RNA 2: B4 RNA 2 with A28U, A29U, C52A, A53U, C54U
B17: target 2 MT 5'PFS AUG 3'PFS ACC (mixed)
RNA 1: B4 RNA 1
RNA 2: B4 RNA 2 with U27A, A28U, A29G, C52A, A53C
B18: target 2 MT 5'PFS UUU 3'PFS AUA (mixed)
RNA 1: B4 RNA 1
RNA 2: B4 RNA 2 with A28U, A29U, C52A, A53U, C54A
B19: target 2 MT 5'PFS AUG 3'PFS ACU (mixed)
RNA 1: B4 RNA 1
RNA 2: B4 RNA 2 with U27A, A28U, A29G, C52A, A53C, C54U
B20: target 2 MT 5'PFS ACG 3'PFS CCA (mixed)
RNA 1: B4 RNA 1
RNA 2: B4 RNA 2 with U27A, A28C, A29G, A53C, C54A
B21: target 2 MT 5'PFS UCG 3'PFS AAG (mixed)
RNA 1: B4 RNA 1
RNA 2: B4 RNA 2 with A28C, A29G, C52A, C54G
B22: target 2 MT 5'PFS GUA 3'PFS AUG (mixed)
RNA 1: B4 RNA 1
RNA 2: B4 RNA 2 with U27G, A28U, C52A, A53U, C54G
B23: target 2 MT 5'PFS UUU 3'PFS AUC (mixed)
RNA 1: B4 RNA 1
RNA 2: B4 RNA 2 with A28U, A29U, C52A, A53U
B24: target 2 MT 5'PFS GUA 3'PFS AUU (mixed)
RNA 1: B4 RNA 1
RNA 2: B4 RNA 2 with U27G, A28U, C52A, A53U, C54U
B25: target 2 MT 5'PFS ACU 3'PFS ACG (mixed)
RNA 1: B4 RNA 1
RNA 2: B4 RNA 2 with U27A, A28C, A29U, C52A, A53C, C54G
B26: target 2 MT 5'PFS GCG 3'PFS UCC (mixed)
RNA 1: B4 RNA 1
RNA 2: B4 RNA 2 with U27G, A28C, A29G, C52U, A53C
B27: target 2 MT 5'PFS GCG 3'PFS UCA (mixed)
RNA 1: B4 RNA 1
RNA 2: B4 RNA 2 with U27G, A28C, A29G, C52U, A53C, C54A
B28: target 2 MT 5'PFS CUG 3'PFS UGC (mixed)
RNA 1: B4 RNA 1
RNA 2: B4 RNA 2 with U27C, A28U, A29G, C52U, A53G
B29: target 2 MT 5'PFS GUA 3'PFS AUC (mixed)
RNA 1: B4 RNA 1
RNA 2: B4 RNA 2 with U27G, A28U, C52A, A53U
B30: target 2 MT 5'PFS GCG 3'PFS UCU (mixed)
RNA 1: B4 RNA 1
RNA 2: B4 RNA 2 with U27G, A28C, A29G, C52U, A53C, C54U
B31: target 2 MT 5'PFS GAG 3'PFS UCC (mixed)
RNA 1: B4 RNA 1
RNA 2: B4 RNA 2 with U27G, A29G, C52U, A53C
B32: target 2 MT 5'PFS GAG 3'PFS UCU (mixed)
RNA 1: B4 RNA 1
RNA 2: B4 RNA 2 with U27G, A29G, C52U, A53C, C54U
B33: target 2 MT 5'PFS CAG 3'PFS AUC (mixed)
RNA 1: B4 RNA 1
RNA 2: B4 RNA 2 with U27C, A29G, C52A, A53U
B34: target 2 MT 5'PFS ACG 3'PFS CCG (mixed)
RNA 1: B4 RNA 1
RNA 2: B4 RNA 2 with U27A, A28C, A29G, A53C, C54G
B35: target 2 MT 5'PFS AUG 3'PFS ACA (mixed)
RNA 1: B4 RNA 1
RNA 2: B4 RNA 2 with U27A, A28U, A29G, C52A, A53C, C54A

Positions count from the first letter of the chain named. Names may count otherwise.

Broadly, the Kd is the free concentration of one partner at which half of the binding sites on the other are occupied at equilibrium, for simple one-to-one binding. A higher Kd goes with lower affinity.

For this data set, the target named is T1, EsCas13d, nuclease-dead. Nature of the data set: crRNA (strand 1, pre-loaded); Mg2+; 40 mM Tris-HCl pH 7.5, 150 mM NaCl, 6 mM MgCl2, 1 mM DTT, 0.1% Tween-20, 0.2 mg/ml BSA; 25 C; 10 min per concentration, then washed. The conditions noted are these: tags: His6-TwinStrep-SUMO cleaved; N-terminal SNAP kept (SNAP-Surface 488); label: 3' end held by stalled T7 RNA polymerase.
For B1, the Kd came out at 19.7 ± 0.8 nM. The same measure for B2: 15 ± 1.2 nM; for B3: 6.5 ± 0.5 nM; for B4: 5.6 ± 1.8 nM. The same measure for B5: 20 ± 4 nM; for B6: 16 ± 5 nM. As for B7, the figure is 2.4 ± 0.4 nM; as for B8, roughly 24 nM.

B9 showed a Kd of 4.5 ± 1 nM.

Molecule B10 had a Kd of 7.5 ± 0.9 nM.

With B11, the dissociation constant (Kd) worked out at 10.7 ± 0.9 nM. B12 displayed a Kd of 43 ± 10 nM. B13 displayed a dissociation constant (Kd) of 10.2 ± 1.5 nM.

Consider B14, for which the affinity, expressed as Kd, was 8 ± 0.8 nM. The molecule B15 gave a dissociation constant Kd of 3.72 ± 0.32 nM. Consider B16, for which the Kd was 9.1 ± 1 nM. For the molecule B17, the affinity, expressed as Kd, was 18.8 ± 3.1 nM. Turning to B18, the dissociation constant (Kd) was 6.5 ± 0.5 nM.

B19 came in with a Kd of 11.6 ± 1.9 nM. In turn, B20 came in with a Kd of 19 ± 7 nM. Take B21: binding was characterised by a dissociation constant (Kd) of 32 ± 11 nM. As for B22, the figure is 7.8 ± 0.5 nM. As for B23, the figure is 6.9 ± 0.8 nM. As for B24, binding was characterised by a dissociation constant (Kd) of 6.8 ± 0.5 nM.

With B25, the Kd was determined as 9.5 ± 2.5 nM.

For the molecule B26, binding was characterised by a dissociation constant (Kd) of 30 ± 5 nM. B27 returned a dissociation constant Kd of roughly 37 nM. The same measure for B28: 2.56 ± 0.25 nM. Consider B29, for which the Kd was found to be 8.9 ± 0.8 nM. Turning to B30, binding was characterised by a dissociation constant (Kd) of 31 ± 5 nM.

B31 had a dissociation constant (Kd) of 29 ± 5 nM. Molecule B32 gave a Kd of 16 ± 2.2 nM. B33: the Kd is 7 ± 1.7 nM.

B34 registered a Kd of 9.9 ± 1.5 nM.

Regarding B35, the Kd came out at 13 ± 3.2 nM.

Values taken from PMC10786891, “Massively parallel profiling of RNA-targeting CRISPR-Cas13d”.
